Results taken from US20210261685A1 (Alector, published 2021).

T1: human MerTK extracellular domain (ECD), recombinant (human, UniProt Q12866 21-505)
T1 construct: also called huMerTK; not shown: polyHis tag or TEVS/Thrombin/murine IgG2a Fc tag
T1 sequence: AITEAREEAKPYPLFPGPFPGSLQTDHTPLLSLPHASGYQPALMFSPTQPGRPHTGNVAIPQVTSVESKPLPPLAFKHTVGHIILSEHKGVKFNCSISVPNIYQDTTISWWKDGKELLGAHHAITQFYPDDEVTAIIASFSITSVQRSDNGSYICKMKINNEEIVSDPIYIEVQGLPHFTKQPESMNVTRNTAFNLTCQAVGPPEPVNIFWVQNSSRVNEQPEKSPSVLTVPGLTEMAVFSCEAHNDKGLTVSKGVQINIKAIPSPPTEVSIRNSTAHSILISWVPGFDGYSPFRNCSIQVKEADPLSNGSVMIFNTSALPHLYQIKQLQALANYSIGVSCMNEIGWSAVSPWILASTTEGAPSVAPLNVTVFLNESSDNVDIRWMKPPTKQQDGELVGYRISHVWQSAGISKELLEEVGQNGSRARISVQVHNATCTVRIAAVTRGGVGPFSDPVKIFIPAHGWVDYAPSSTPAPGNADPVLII

T2: cyno MerTK extracellular domain (ECD), recombinant (cynomolgus monkey, UniProt Q12866 21-505 (human entry))
T2 construct: also called cynomolgus MerTK; not shown: polyHis tag or TEVS/Thrombin/murine IgG2a Fc tag
T2 chain: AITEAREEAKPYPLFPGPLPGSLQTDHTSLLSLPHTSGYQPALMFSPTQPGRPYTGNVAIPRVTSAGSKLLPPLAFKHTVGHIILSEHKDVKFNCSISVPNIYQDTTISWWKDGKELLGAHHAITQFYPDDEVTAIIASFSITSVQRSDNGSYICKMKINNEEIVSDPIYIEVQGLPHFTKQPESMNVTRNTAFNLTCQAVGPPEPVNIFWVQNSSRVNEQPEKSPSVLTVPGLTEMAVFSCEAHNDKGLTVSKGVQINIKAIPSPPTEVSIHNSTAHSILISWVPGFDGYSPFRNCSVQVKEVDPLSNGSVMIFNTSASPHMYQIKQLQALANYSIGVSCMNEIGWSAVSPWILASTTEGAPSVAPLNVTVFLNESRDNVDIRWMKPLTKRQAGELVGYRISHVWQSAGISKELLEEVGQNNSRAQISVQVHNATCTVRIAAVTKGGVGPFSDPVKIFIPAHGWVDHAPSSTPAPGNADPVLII

T3: murine MerTK extracellular domain (ECD), recombinant (mouse, UniProt Q60805 19-497)
T3 construct: also called moMerTK; mouse MerTK; not shown: polyHis tag or TEVS/Thrombin/murine IgG2a Fc tag
T3 sequence: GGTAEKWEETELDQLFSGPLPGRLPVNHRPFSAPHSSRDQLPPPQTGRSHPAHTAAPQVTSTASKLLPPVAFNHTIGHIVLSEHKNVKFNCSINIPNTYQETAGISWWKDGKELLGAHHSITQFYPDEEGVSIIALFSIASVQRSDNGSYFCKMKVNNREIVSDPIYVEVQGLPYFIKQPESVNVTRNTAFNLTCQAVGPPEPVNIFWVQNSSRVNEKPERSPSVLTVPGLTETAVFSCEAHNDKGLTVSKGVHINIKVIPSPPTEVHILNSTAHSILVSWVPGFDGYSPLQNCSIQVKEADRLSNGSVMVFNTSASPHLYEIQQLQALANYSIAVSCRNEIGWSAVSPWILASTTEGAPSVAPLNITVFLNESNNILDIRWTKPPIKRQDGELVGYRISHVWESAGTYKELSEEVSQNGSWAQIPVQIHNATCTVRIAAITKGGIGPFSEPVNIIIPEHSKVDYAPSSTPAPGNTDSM


How the values were obtained:
Experiment in all cases: SPR, Carterra LSA, antibody immobilised
[1] = target: T1, human MerTK extracellular domain (ECD), …
Protocol: (§1) Binding kinetics of humanized and affinity-matured anti-MerTK antibodies of the present disclosure to human, murine, and cynomolgus MerTK proteins were evaluated as follows. Briefly, anti-MerTK antibodies were prepared by diluting to 10 μg/ml in 10 mM Acetate, pH 4.25 (Carterra, Salt Lake City, Utah), at 300 μl/well. A HC200M sensor chip (Carterra) was activated using the single channel flow cell with a 7-minute injection of a 1:1:1 mixture of 100 mM MES pH 5.5, 100 mM sulfo-NHS, 400 mM EDC (all reconstituted in MES pH 5.5; 100 μl of each mixed in vial immediately before running assay). After switching to the multi-channel array flow cell, the antibodies were injected over the activated chip in a 96-spot array for 15 minutes. The remaining unconjugated active groups on the chip were then blocked by injecting 1M Ethanolamine pH 8.5 (Carterra) for 7 minutes using the single channel flow cell.
(§2) Estimates of affinity were generated by injecting each analyte over the entire antibody array using the single channel flow cell. MerTK analytes were diluted to 33.3, 100, and 300 nM in running buffer, and injected in serial from lowest to highest concentration without regeneration. Two buffer blanks were run between each series (one species per series). Data were processed and analyzed using NextGenKIT high-throughput kinetics analysis software (Carterra). In these experiments, the anti-MerTK antibodies were human IgG1 isotype containing the Fc variant LALAPS.
(§3) The equilibrium dissociation constants (KD) were then calculated from the fitted association and dissociation rate constants (k-on and k-off) for anti-MerTK antibodies of the present disclosure.

[2] = target: T2, cyno MerTK extracellular domain (ECD), …
Protocol: as §1, §2, §3

[3] = target: T3, murine MerTK extracellular domain …
Protocol: as §1, §2, §3

Binder | Kd [1] | Kd [2] | Kd [3] | binding result [3]
MTK-29.8 (antibody, human IgG1, V domains shown) VH: QVQLVQSGSELKKPGASVKVSCKASGYIFTTYGLSWVRQAPGQGLEWMGWINTYSGVPTYTDDFKGRFVFSLDTNVSTAYLQISSLKAEDTAVYYCARYTNYGVFDYWGQGTLVTVSS VL: DIQLTQSPSFLSASVGDRVTITCRASSSVGYMHWYQQKPGKAPKLLIYATSNLAQGVPSRFSGSGSGTEFTLTISSLQPEDFATYYCQQWGSLPFTFGQGTKLEIK | 0.023 µM | 0.0225 µM | 0.31 µM | –
MTK-29.16 (antibody, human IgG1, V domains shown) VH: QVQLVQSGSELKKPGASVKVSCKASGYIFTSYGLSWVRQAPGQGLEWMGWVNTYSGVPTYTDDFKGRFVFSLDTSVSTAYLQISSLKAEDTAVYYCARYTNYGVFDYWGQGTLVTVSS VL: DIQLTQSPSFLSASVGDRVTITCRASSSVGYMHWYQQKPGKAPKLLIYATSNLAQGVPSRFSGSGSGTEFTLTISSLQPEDFATYYCQQWGRLPFTFGQGTKLEIK | 0.0086 µM | 0.0088 µM | 0.205 µM | –
MTK-29.15 (antibody, human IgG1, V domains shown) VH: QVQLVQSGSELKKPGASVKVSCKASSYTFTTYGMSWVRQAPGQGLEWMGWINTMSGVPTYTDDFKGRFVFSLDTSVSTAYLQISSLKAEDTAVYYCARYTNYGVFDYWGQGTLVTVSS VL: DIQLTQSPSFPSASVGDRVTITCRASSSVGYMHWYQQKPGKAPKLLIYATSNLAQGVPSRFSGSGSGTEFTLTISSLQPEDFATYYCQQWGSLPFTFGQGTKLEIK | 0.0074 µM | 0.0084 µM | – | no binding (tested: 300 nM)
MTK-29.14 (antibody, human IgG1, V domains shown) VH: QVQLVQSGSELKKPGASVKVSCKASSYTFTTYGMSWVRQAPGQGLEWMGWINTYSGVPSYTDDFKARFVFSLDTSVSTAYLQISSLKAEDTAVYYCARYTNYGVFDYWGQGTLVTVSS VL: DIQLTQSPSFLSASVGDRVTITCRASSSVGYMHWYQQKPGKAPKLLIYATSNLAQGVPSRFSGSGSGTEFTLTIFSLQPEDFATYYCQQWGSLPFTFGQGTKLEIK | 0.0076 µM | 0.0073 µM | 0.1 µM | –
MTK-29.12 (antibody, human IgG1, V domains shown) VH: QVQLVQSGSELKKPGASVKVSCKASSYTFTTYGMSWVRQAPGQGLEWMGWINTMSGVPTYTDDFKGRFVFSLDTSVSTAYLQISSLKAEDTAVYYCARYTNYGVFDYWGQGTLVTVSS VL: DIQLTQSPGFLSASVGDRVTITCRASSSVGYMHWYQQKPGKAPKLLIYATSNLAQGVPSRFSGSGSGTEFTLTISSLQPEDFATYYCQQWGSLPFTFGQGTKLEIK | 0.023 µM | 0.021 µM | 0.25 µM | –
MTK-29.13 (antibody, human IgG1, V domains shown) VH: QVQLVQSGSELKKPGASVKVSCKASSYTFTTYGMSWVRQAPGQGLEWMGWINTASGVPTYTDDFKGRFVFSLDTSVSTAYLQISSLKAEDTAVYYCARYTNYGVFDYWGQGTLVTVSS VL: DIQLTQSPSFLSASVGDRVTITCRASSSVGYMHWYQQEPGKAPKLLIYATSNLAQGVPSRFSGSGSGTEFTLTISSLQPEDFATYYCQQWGSLPFTFGQGTKLEIK | 0.013 µM | 0.011 µM | 0.17 µM | –
MTK-29.17 (antibody, human IgG1, V domains shown) VH: QVQLVQSGSELKKPGASVKVSCKASGYIFTSYGLSWVRQAPGQGLEWMGWINTYSGVPTYAQGFTGRFVFSLDTSVSTAYLQISSLKAEDTAVYYCARYTNYGVFDYWGQGTLVTVSS VL: DIQLTQSPSFLSASVGDRVTITCRSSSSVGYMHWYQQKPGKAPKLLIYATSNLAQGVPSRFSGSGSGTEFTLTISSLQPEDFATYYCQQWGSLPFTFGQGTKLEIK | 0.0096 µM | 0.0099 µM | 0.17 µM | –
MTK-16.1 (antibody, V domains shown) VH: QVQLVQSGSELKKPGASVKVSCKASGYTFTNHGMNWVRQAPGQGLEWMGWINTYTGEPTYAQGFTGRFVFSLDTSVSTAYLQISSLKAEDTAVYYCARKGVTAARYFDYWGQGTLVTVSS VL: DIQMTQSPSSLSASVGDRVTITCKASQNVRTAVAWYQQKPGKAPKRLIYLASNRHTGVPSRFSGSGSGTEFTLTISNLQPEDFATYYCLQHWNYPLTFGGGTKVEIK | 0.086 µM | 0.17 µM | – | no binding (tested: 300 nM)
MTK-16.2 (antibody, V domains shown) VH: QVQLVQSGSELKKPGASVKVSCKASGYTFTNHGMNWVRQAPGQGLEWMGWINTYTGEPTYADDFKGRFVFSLDTSVSTAYLQISSLKAEDTAVYYCARKGVTAARYFDYWGQGTLVTVSS VL: DIQMTQSPSSLSASVGDRVTITCRASQNVRTAVAWYQQKPGKAPKRLIYLASNRHTGVPSRFSGSGSGTEFTLTISNLQPEDFATYYCLQHWNYPLTFGGGTKLEIK | 0.08 µM | 0.16 µM | – | no binding (tested: 300 nM)

These reach a lower Kd [1]. Values come first.

Kd [1] | Kd [2] | Kd [3] | binding result [3] | Binder
0.0045 µM | 0.0042 µM | 0.116 µM | – | MTK-29.10 (antibody, human IgG1, V domains shown) VH: QVQLVQSGSELKKPGASVKVSCKTSSYTFTTYGMSWVRQAPGQGLEWMGWINTYSGVPTYTDDFKGRFVFSLDTSVSTAYLQISSLKAEDTAVYYCARYTNYGVFDYWGQGTLVTVSS VL: EIVLTQSPATLSLSPGERATLSCRASSSVGYMHWYQQKPGQAPRLLIYATSNLASGIPARFSGSGSGTDFTLTISRLEPEDFAVYYCQQWGSLPFTFGGGTKLEIK
0.0044 µM | 0.0044 µM | 0.135 µM | – | MTK-29.5 (antibody, human IgG1, V domains shown) VH: QVQLVQSGSELKKPGASVKVSCKASGYIFTSYGLSWVRQAPGQGLEWMGWINTYSGVPTYTDDFKGRFVFSLDTSVSTAYLQISPLKAEDTAVYYCARYTNYGVFDYWGQGTLVTVSS VL: DIQLTQSPSFLSASVGDRVTITCRASSSVGYMHWYQQKPGKAPKLLIYATSNLAQGVPSRFSGSGSGTEFTLTISSLQPEDFATYYCQQWGSLPFTFGQGTKLEIK
0.0036 µM | 0.0032 µM | 0.095 µM | – | MTK-29.7 (antibody, human IgG1, V domains shown) VH: QVQLVQSGSELKKPGASVKVSCKASSYTFTTYGMSWVRQAPGQGLEWMGWINTYSGVPSYTDDFKARFVFSLDTSVSTAYLQISSLKAEDTAVYYCARYTNYGVFDYWGQGTLVTVSS VL: DIQLTQSPSFLSASVGDRVTITCRASSSVGYMHWYQQKPGKAPKLLIYATSNLAQGVPSRFSGSGSGTEFTLTISSLQPEDFATYYCQQWGSLPFTFGQGTKLEIK
0.0057 µM | 0.0058 µM | 0.14 µM | – | MTK-29.9 (antibody, human IgG1, V domains shown) VH: QVQLVQSGSELKKPGASVKVSCKASGYIFTSYGLSWVRQAPGQGLEWMGWINTYSGVPTYTDDFKGRFVFSLDTSVSTAYLQISSLKAEDTAVYYCARYTNYGVFDYWGQGTLVTVSS VL: DIQLTQSPSFLSASVGDRVTITCRASSSVGYMHWYQQKPGKAPKLLIYATSNLAQGVPSRFSGSGSGTGFTLTISSLQPEDFATYYCQQWGSLPFTFGQGTKLEIK
